This is an account of results in patent US20190336574A1 (TRUSTEES OF PRINCETON UNIVERSITY, published 2019).

The target of assay [1] is T1, HA-SND1, full-length human, wild type (human, UniProt Q7KZF4 1-910).
T1 sequence: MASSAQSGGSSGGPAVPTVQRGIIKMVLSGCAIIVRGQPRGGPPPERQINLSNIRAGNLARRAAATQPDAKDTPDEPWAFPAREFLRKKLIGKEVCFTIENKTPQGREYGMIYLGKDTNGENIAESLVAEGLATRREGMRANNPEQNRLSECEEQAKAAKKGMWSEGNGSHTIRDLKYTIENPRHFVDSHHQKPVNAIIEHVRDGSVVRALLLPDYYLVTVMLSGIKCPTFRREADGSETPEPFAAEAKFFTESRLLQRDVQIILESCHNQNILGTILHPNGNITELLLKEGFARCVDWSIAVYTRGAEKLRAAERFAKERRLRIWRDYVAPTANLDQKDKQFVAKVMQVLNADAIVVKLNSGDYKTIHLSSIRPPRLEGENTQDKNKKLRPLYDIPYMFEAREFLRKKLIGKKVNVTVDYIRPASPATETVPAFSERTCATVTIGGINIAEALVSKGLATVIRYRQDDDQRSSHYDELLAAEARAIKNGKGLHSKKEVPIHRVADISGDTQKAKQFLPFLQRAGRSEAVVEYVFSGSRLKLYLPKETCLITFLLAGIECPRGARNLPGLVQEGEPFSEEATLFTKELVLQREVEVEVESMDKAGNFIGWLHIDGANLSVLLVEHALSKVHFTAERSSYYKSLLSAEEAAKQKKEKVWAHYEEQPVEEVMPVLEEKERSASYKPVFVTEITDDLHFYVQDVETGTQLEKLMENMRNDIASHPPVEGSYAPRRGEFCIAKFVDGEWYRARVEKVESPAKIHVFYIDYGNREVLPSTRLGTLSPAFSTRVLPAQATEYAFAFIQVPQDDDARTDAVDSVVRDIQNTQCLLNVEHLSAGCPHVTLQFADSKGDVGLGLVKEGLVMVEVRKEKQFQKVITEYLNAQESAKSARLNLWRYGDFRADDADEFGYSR
Nature of the assay: cell-based or functional assay.

Assay [2] deals with human AGO2 (ectopically expressed in HEK293T cells) (human, UniProt Q9UKV8 1-859). Nature of the assay: anti-Myc co-IP from HEK293T lysate (HA-SND1 and FLAG-AGO2 co-expressed), western blot. From the text:
Two putative nuclear localization signals are residues 432-451 for NLS2 and residues 561-580 for NLS3. […] (FIG. 7B) Pulldown of His6-SND1ΔC by GST-tagged MTDH fragments with indicated boundaries. The bound proteins were examined by SDS-PAGE and visualized by Coomassie blue staining. […] For (FIG. 7B) and (FIG. 7C), 1/10 of the His6-SND1ΔC input was shown, and GST alone was used as a negative control. Representative results of 3 independent experiments are shown. (FIG. 7D, FIG. 7E) Lysates from HEK293T cells expressing the indicated ectopic human SND1, AGO2 or MTDH were immunoprecipitated with anti-Myc and immunoblotted with the indicated antibodies.
Immunoprecipitation and western blot For immunoprecipitation (IP) experiments, cultured cells were washed in cold PBS and lysed in lysis buffer (20 mM Tris pH 7.4, 0.15 M NaCl, 1 mM EDTA, 1 mM EGTA, 1% Tx-100, 0.0025 M Na2P2O7, 1 mM α-glycerolphosphate, 1 mM Na3VO4, and 1 mM NaF) with an EDTA-free protease inhibitor mixture (Roche Applied Science) and PMSF. Cell lysates were then incubated on ice for 10 min, centrifuged, and precleared by incubating with protein A/G beads (Santa Cruz Biotechnology) for 1 h at 4° C. For IP bead preparation, 30 μl of protein A/G beads were incubated with 5 μg of antibodies for 2 h at 4° C. […]
(A western blot detects proteins with antibodies after separation by electrophoresis.)

human AGO2 (ectopically expressed in HEK293T cells), sequence (Q9UKV8 whole entry, the tested form may be a part): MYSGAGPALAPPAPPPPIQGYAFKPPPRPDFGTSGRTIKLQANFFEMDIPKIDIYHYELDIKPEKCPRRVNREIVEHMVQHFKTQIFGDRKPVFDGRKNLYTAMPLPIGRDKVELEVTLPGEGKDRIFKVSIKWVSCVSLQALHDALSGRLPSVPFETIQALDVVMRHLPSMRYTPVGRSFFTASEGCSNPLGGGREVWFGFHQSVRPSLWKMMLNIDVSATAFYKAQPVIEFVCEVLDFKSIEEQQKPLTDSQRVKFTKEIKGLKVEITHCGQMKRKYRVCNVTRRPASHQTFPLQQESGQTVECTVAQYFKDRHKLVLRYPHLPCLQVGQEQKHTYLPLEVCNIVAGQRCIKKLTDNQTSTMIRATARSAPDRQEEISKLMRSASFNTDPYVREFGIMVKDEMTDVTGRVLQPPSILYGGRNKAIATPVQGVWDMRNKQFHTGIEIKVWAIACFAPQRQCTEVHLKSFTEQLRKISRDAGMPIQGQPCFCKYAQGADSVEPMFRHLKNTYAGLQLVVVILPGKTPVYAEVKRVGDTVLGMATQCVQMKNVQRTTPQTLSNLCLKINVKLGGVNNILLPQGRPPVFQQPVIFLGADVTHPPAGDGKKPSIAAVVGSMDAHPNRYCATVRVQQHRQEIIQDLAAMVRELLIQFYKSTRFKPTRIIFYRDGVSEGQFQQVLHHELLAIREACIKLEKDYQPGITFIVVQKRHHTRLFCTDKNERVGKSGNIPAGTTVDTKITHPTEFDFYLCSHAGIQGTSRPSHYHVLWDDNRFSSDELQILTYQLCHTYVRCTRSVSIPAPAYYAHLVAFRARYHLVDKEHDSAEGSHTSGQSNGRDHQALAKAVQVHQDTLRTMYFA

B1: Myc-MTDH, full-length human, wild type (other)
chain: MAARSWQDELAQQAEEGSARLREMLSVGLGFLRTELGLDLGLEPKRYPGWVILVGTGALGLLLLFLLGYGWAAACAGSRKKRRSPPRKREEAAAVPAAAPDDLALLKNLRSEEQKKKNRKKLSEKPKPNGRTVEVAEGEAVRTPQSVTAKQPPEIDKKNEKSKKNKKKSKSDAKAVQNSSRHDGKEVDEGAWETKISHREKRQQRKRDKVLTDSGSLDSTIPGIENTITVTTEQLTTASFPVGSKKNKGDSHLNVQVSNFKSGKGDSTLQVSSGLNENLTVNGGGWNEKSVKLSSQISAGEEKWNSVSPASAGKRKAEPSAWSQDTGDANTNGKDWGRSWSDRSIFSGIGSTAEPVSQSTTSDYQWDVSRNQPYIDDEWSGLNGLSSADPNSDWNAPAEEWGNWVDEERASLLKSQEPIPDDQKVSDDDKEKGEGALPTGKSKKKKKKKKKQGEDNSTAQDTEELEKEIREDLPVNTSKTRPKQEKAFSLKTISTSDPAEVLVKNSQPIKTLPPATSTEPSVILSKSDSDKSSSQVPPILQETDKSKSNTKQNSVPPSQTKSETSWESPKQIKKKKKARRET
notes: Full-length, Myc-tagged; Expressed in HEK293T cells, tested in lysate; also called Myc-tagged MTDH; WT Myc-MTDH
For the molecule B1, the “half-life of HA-SND1 in HEK293T cells at 45° C (heat shock)” value in assay [1] is more than 3 h. The binding result in assay [2] is recorded as “binds”.
